Reference: IntAct's records for PubMed 12134079

B1: "Bis(monoacylglycero)phosphate synthase CLN5" (Homo sapiens), O75503 (parent)
chain: MAQEVDTAQGAEMRRGAGAARGRASWCWALALLWLAVVPGWSRVSGIPSRRHWPVPYKRFDFRPKPDPYCQAKYTFCPTGSPIPVMEGDDDIEVFRLQAPVWEFKYGDLLGHLKIMHDAIGFRSTLTGKNYTMEWYELFQLGNCTFPHLRPEMDAPFWCNQGAACFFEGIDDVHWKENGTLVQVATISGNMFNQMAKWVKQDNETGIYYETWNVKASPEKGAETWFDSYDCSKFVLRTFNKLAEFGAEFKNIETNYTRIFLYSGEPTYLGNETSVFGPTGNKTLGLAIKRFYYPFKPHLPTKEFLLSLLQIFDAVIVHKQFYLFYNFEYWFLPMKFPFIKITYEEIPLPIRNKTLSGL
partner: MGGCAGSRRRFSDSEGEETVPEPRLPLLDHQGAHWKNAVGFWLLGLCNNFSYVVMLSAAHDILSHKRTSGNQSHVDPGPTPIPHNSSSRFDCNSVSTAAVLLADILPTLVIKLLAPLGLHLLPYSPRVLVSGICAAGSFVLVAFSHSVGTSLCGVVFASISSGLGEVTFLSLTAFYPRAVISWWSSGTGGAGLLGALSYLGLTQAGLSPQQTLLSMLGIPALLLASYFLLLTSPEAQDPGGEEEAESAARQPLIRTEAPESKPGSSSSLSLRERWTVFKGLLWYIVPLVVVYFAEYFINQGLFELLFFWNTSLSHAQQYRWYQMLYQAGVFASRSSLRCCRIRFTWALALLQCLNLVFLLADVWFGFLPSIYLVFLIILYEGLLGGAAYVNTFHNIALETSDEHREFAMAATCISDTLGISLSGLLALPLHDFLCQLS

Variants of: B1
Conditions: with cln3_human CLN3, Q13286

Variant	effect of a mutation on the interaction
MAQEVDTAQGAEMRRGAGAARGRASWCWALALLWLAVVPGWSRVSGIPSRRHWPVPYKRFDFRPKPDPYCQAKYTFCPTGSPIPVMEGDDDIEVFRLQAPVWEFKYGDLLGHLKIMHDAIGFRSTLTGKNYTMEWYELFQLGNCTFPHLRPEMDAPFWCNQGAACFFEGIDDVHWKENGTLVQVATISGNMFNQMAKWVKQDNETGIYYETWNVKASPEKGAETWFDSYNCSKFVLRTFNKLAEFGAEFKNIETNYTRIFLYSGEPTYLGNETSVFGPTGNKTLGLAIKRFYYPFKPHLPTKEFLLSLLQIFDAVIVHKQFYLFYNFEYWFLPMKFPFIKITYEEIPLPIRNKTLSGL [D230N]	with no effect
